Results reported in the DeepSol protein solubility set.

Experiment: soluble on expression in E. coli; label from the status in PepcDB or PDB records

| Sequence | soluble on expression in E. coli |
| --- | --- |
| MSLIARDAHEGQFRSSGEPYITHPVAVASIIAQLHLDHEAVMAALLHDVIEDTPYTEEQLKEEFGASVAEIVDGVSKLDKLKFRTRQEAQVENFRKMILAMTRDIRVVLIKLADRTHNMRTLGSLRPDKRRRIAKETLEIYCPLAHRLGIEHIKNELEDLSFQAMHPHRYEVLKKLVDVARSNRQDLIERISQEIKVRLENSGIFARVWGREKHLYKIYQKMRIKDQEFHSIMDIYAFRVIVKNVDDCYRVLGQMHNLYKPRPGRVKDYIAVPKANGYQSLQTSMIGPKGVPVEVHIHTEDMEQVAEMGITAHWVYKENGKNDSTTAQIRVQRWLQSLVEIQQSVGNSFEFIENVKSEFFPKEIYVFTPKGRIVELPMGATAVDFAYAVHSDVGNTCVGVTVEHKPYPLSKALESGQTVNIITDPNAHPEVAWLNFVVTARAKTRIRHYLKQRCEEDAVKLGEVELNVALQPHNLGDFSIQQIRTVLDALALSSLDELLREIGLGNQSASMIAHQFVGVPLESANTKNLEFESKILTIAPMQVGKTQFAQCCHPILGDPIVGCCTEKNTVVVHHQHCASLKNACRQSLAKWDNVQSAVNFEAELQIEILNEQNALLSLMTAISASESSLQNIWTEELENNLLLVILQVCVKDIKHLANIVHRIKGITGVVNVKRNINELEGHHHHHH | not soluble |
| MSLIDIHSHIIPNIDDGSKSLEMSLEMLKRAEESGTKKIIATPHFFKGYWTENYNSVKDKVKELNKLAKENNLNIEIYPGQEVFFNNYILEDFKLGDIGTLGESRYMLIEFPMDKIYFQKAIDEIYELKIKGITPVIAHPERYVDFINNPEEINQFIDEGYLFQLNGGSLTGLFGKEVKKTAELFLENNLYSFIGSDAHSNGNRNTSLKEACEVANSISRGASRRFEANGLALLNNEKIVFQGEGHHHHHH | soluble |
| MSLIEDCLRSYRFIAIDTEFPSTLRETTQHATDEERYMDMSFSVDRAKLIQLGLTLFDINGRIGGTWEINFSDFGVDDARNEKSIEFLRRNGLDLRKIREEGIRIEGFFSEMFWMLKKTRRNITWVTFHGSYDIAYLLKGFTGEALPVTSERFSKAVARVLGSVYDLKVMAGRCEGLSSRLGLETLAHEFGLNRVGTAHHAGSNNELTAMVFAKVLSPFPLFLRFGSLELRTIESEAIV | soluble |
| MSLIEEEVLKIIKPTEEDKKGIEKVLEIIRERLNKLDFEVEGSFRKGTWLRQDTDIDVFVFYPKDVGKEYLERNALNDIINRIKDLDYTLAYAEHPYVIVNINNVEVDIVPALRVESGDKAITAVDRTPFHTKYVTSHLDERGKDEVRLLKRFMKGIGVYGAELKVQGFSGYATELLIIYYGNFRKVLEEASKWKHPIKIELTKPMKIFSEPLIIPDPVDPKRNVTAAVSLKNIATFSIAAKYYLKNPSIEFFFPSKKVEEKVKGDVLILRLNLDEKSSEDIVWGQIKRSVNKIERALKQYGFRVIDVQAWGDTNNITIAVQLESKNIGQYYLNIGPQYYSGTIEDFIQKNDNIWVGEDGRLYSIKERKEYDAETIAKKNIVLKVKYNIESYWLQNTEDQQIMKFLRKTPTWLKEGHHHHHH | not soluble |
| MSLIEELFDQMSKGNLLLIDMTYDMFNGMQTYIGDPPFKHEYFRKGNKYGEVTLSTVYMGLHSGTHIDLPLHFVPNGESVEKFNIIQFIGYGNVLDLSYKKLGEPISSNDLKKFDDRIKENYVVMLYTGFSATRGKEDFLYNWPYLDSNGADYLVSKKIRAVGIESMSIAGWAGKEYPPRTNWDEVVYVHHKLLSNDIIILESVNNMKKVLEECKNGEALFFYAPLKIVGAEGGPTRLFAICEKREGHHHHHH | not soluble |
| MSLIKLFLLKLYWAHFSTKQIHQFLMAYPNVIKEEGRKKDSYLCEWVNREENVHLLRKYYAFIKLDHNDIIKELQKLKVSYITYMDSEYPVLLKEIYQFPLLLFYKGNIKLINNMHHLAVVGARDSTSYTQQSLEFLLSNDKSKYLTIVSGLAQGADAMAHQIALKYNLPTIAVLAFGHQTHYPKSTLALRNKIEEKGLVISEYPPHTPIAKYRFPERNRIISGLSKGVLITEAKEQSGSHITIDFALEQNRNVYVLPGSMFNPMTKGNLLRIQEGAKVVLNANDIFEDYYIEGHHHHHH | soluble |
| MSLIKMIALDLDETLLNTDKTISEENATALRQLHEAGIKIVLCTGRPINAIWHYLEQLGLTTDDDYTITFNGALVIQNSTKEALAQSGLSRNDFEPLHAFAAANHYPMDVLDFDQVYPIADLTPSVYEQMLKAPMKFIPTAFADLPDQLFSKAVMATDAAILDQVVAKLTPELTKLYHVVRSQPKILEFLAADMDKAVGLGQLLTHFGWDFSDLMAFGDAENDLGMIKAAGDGVAMQNGQPAVKAAANHQTPVDNNHAGVAAYLQHVFPELLGEGHHHHHH | soluble |
| MSLIKVLIVEDDPMVAMLNAHYLEQVGGFELVQAVNSVKSAIEVLEESRIDLVLLDIFMPEETGFELLMYIRNQEKEIDIMMISAVHDMGSIKKALQYGVVDYLIKPFTFERFKEALTIYREKLTFMKEQQKISQSELDSLILQKEKREPTVTKELPKGLTKQTLQLIWQKIELLNGRAFTTDEMSQLVGISRVSIRKYVMFLTDIGVLENEMMYQHVGRPVSKLRCVDQKKIEFYVEGHHHHHH | soluble |
| MSLILPPIIAASLPPPPGPHAVGYTFLVHPPLSPFSHSSPTLKSTGKPAFQIEEIGYCLFYPGLPEGKRGKEWVSWVPDPFWGVIRGYERFLGGKGGVSWLVKPLGYIAGRLQMPLHPRAPLKPTDKPYPLLIFSHGLAGTRHTYSQYCAALASEGYVVLAVEHRDGSGPAVVLPPEGESKESRVLYYTGVNDISWAEGEEHPVTHARTLQLDIRTREVYEAYHSFKRLLSHEGDLSIKIEGLEGGHSFGGGTILHLLQSPPPSTLLPSLPAKQAISLDPWLEPLPAPSDILQTPLPSSLPPTLVINSAGFTEWPEHWEKLVEIMKGKGILITMIGIGHQAFSDFPLLSPRGYSHAHSMILKVHELSTAFLNKKLLSGAALAGKTPDKGDYEKDEDGVKIKGKAAMKDGDVLLHFADREEGHHHHHH | soluble |
| MSLILTLDPQVAGASGDMVLGALIAVGADPNRLEEVVHEVSSLGHEVDVHVHEIQKRGIRAVRVEVDAEGDLRDPDELREAVKTVAENVLEDRWRELPELALKYLLRAEERVHGDLCHLHELGSSDTVVDLVGTAALLEDLNPKASEVLPPNVGSGTVETEHGRLPVPAPAVVEVLSEWDVGIVREGEGELLTPTGAALLRTIDELLPDPPPPYRVKRQGFGAGTKDLPDRPNVLRALICEPGGSGEHVRIVETSVDDVDGEAVGELIEAVLQLEGVHDVEVLHGFGKKGRPRFVIRVVTEDRPGIEREVFRELFRWTGTLGARVYRCTRVTADRRIVDVDGIRVKVSRFEDVHHAKPEWEDVRRKVDRESAPLTRARLVGDLRKRYEGDGEDGAGDEGHHHHHH | soluble |
| MSLINAGITTVGEFHYVHHSEQKFDLDQLVIQAAIDAGIRIVLLQTLYERAGFDSPAVHPVQERFIASYEDFIGNLEKLRKEKTHERVQIGVAAHSARAVPFENIKKLFEYASEHKIPFHIHLEEQPKEIFDCQKFIGQKQGPSDLILSKMHLNEYFTAVHSTFTPANNMLLFSKLGANVSICPCTEGYLGDGIPRINESLKISFGTDCNNRICFLEEMRWACFSQQMLNNSRSVCGLSPEKLLLCATIDGARALSLTSKTGSLEVGKYFDAISFSLDSPLLENSLADTLIDSLVLSAGNREISNVFVSGVDRKTEGHHHHHH | not soluble |
| MSLIVLKFGGSSIKYDFEEATNLALSLFEDDAVIVVVSAIKGITDKLILYSQTLDKTIATKIASEYVSFAKSHGIDPVILKPYLDELFNLPDLPEEALRDYILSLGEVLSAVIFSASIGGKFVPSWDIFEAEGNFGNAFIDIKSSKKKFKRVFEVLEEGYIPVIPGFTAGKDGYILTLGRGGSDYSGVAAGVLGKAKLVAIMSDVEGIYTADPKLVPSARLIPYVSYDEIIISSKHGMRALQWKAAELAKEYKIPVLFGRTRNWRMGTLMSERSSGMPLMTYKDGLLLVNVTEEIKYPIIAEGPFWKLYKVSQEEGIHLMRELHTKLFQPSFIQYSVYKSSENGQKTQEFNEKISIEQGENRKIYYSEEEVNLPGEGHHHHHH | soluble |
| MSLIYAQILAGGKGTRMGNVSMPKQFLPLNGKPIIVHTVEKFILNTRFDKILISSPKEWMNHAEDNIKKYISDDRIVVIEGGEDRNETIMNGIRFVEKTYGLTDDDIIVTHDAVRPFLTHRIIEENIDAALETGAVDTVIEALDTIVESSNHEVITDIPVRDHMYQGQTPQSFNMKKVFNHYQNLTPEKKQILTDACKICLLAGDDVKLVKGEIFNIKITTPYDLKVANAIIQERIANEGHHHHHH | soluble |
| MSLIYLLNETPFEGVENLILNEIVFYDFSVDLSLYDALICTSKNALKALQHAKITLNFKLNLYAVGQSTAQYAKNLGFKKIKIPSKAYGKDLFLEFKEELKMQKCLYLRAKNIVSTLNLDLKNVGVDLDEMIVYENVFKKGDKKLIHPAIFIFTSPLSVENFLKFYSLKEEDKVVVIGQSTAKKLLNFKNLYICENQSLLNCVKLAKTLVEGHHHHHH | not soluble |
| MSLKAAQYAGNKSFNVVDGAKVPPAEGEVCLQVGYTGICGTDMHIYHGVMDQRVSIPQIIGHEMSGTVVEVGAGVTDYTVGDRVVVRPLDYCGDCPACNAGHSHVCHNLKFMGIDSPGAFQSYWTVKARTLHALPDNVSLKQGALIEPLSVACHDVARTRLQAGEKALVIGGGPIGQLVALVAKSVGAEVMISEVSEARLKFAAERGIKTVNPVTDDIEAVVKEWTGGKGADAVFEVSGVAAAVETMTKVAAVRGRICMVAIHSQKPQVDLFQFFWKELELLGARVYESADFEHAIELVASGKIDVDSFISSVTSLNDIGTAFASMDNNPAGMKALVECNEGHHHHHH | soluble |
| MSLKAIFITGAGSGMGREGATLFHANGWRVGAIDRNEDGLAALRVQLGAERLWARAVDVTDKAALEGALADFCAGNVGGGLDMMWNNAGIGEGGWFEDVPYEAAVRVVDVNFKAVLTGAYAALPYLKKAPGSLMFSTSSSSGTYGMPRIAVYSATKHAVKGLTEALSVEWQRHGVRVADVLPGLIDTAILTSTRQHSDEGPYTISAEQIRAAAPKKGMFRLMPSSSVAEAAWRAYQHPTRLHWYVPRSIRWIDRLKGVSPEFVRRHIAKSLATLEPKREGHHHHHH | soluble |
| MSLKALARFGKAFGGYKMIHVPQPICGPEDVVTEIKAAAICGADMKHYNVDSGSDEFNSIRGHEFAGCIAQVGEKVKDWKVGQRVVSDNSGHVCGVCPACEQGDFLCCTEKVNLGLDNNTWGGGFSKYCLVPGEILKIHRHALWEIPDGVDYEDAAVLDPICNAYKSIAQQSKFLPGQDVVVIGTGPLGLFSVQMARIMGAVNIVVVGLQEDVAVRFPVAKELGATAVVNGSTEDVVARCQQICGKDNLGLVIECSGANIALKQAIEMLRPNGEVVRVGMGFKPLDFSINDITAWNKSIIGHMAYDSTSWRNAIRLLASGAIKVKPMITHRIGLSQWREGFDAMVDKTAIKVIMTYDFDEGHHHHHH | not soluble |
| MSLKASLLQEQSLRLAMTQELRQAITMLQYNVQELSEFLYEQSLENPLIELGGFEREKKKSSNNSKSTSKQVENQMEIYSVDSTTIQQHLLNQIQYYKIEEEERKVASFIIMNMDGNGYLQETNEELANLLSAPLHVVDRSVELVQSLEPAGVGARNIQECLTLQLKRLQRRNGLAEEVVEDHFAYFVKKDWRKLVQVLKCSNEELQDAVNCITSLQPKPGLAFSSDKPLYIVPDMAVKKDGDRLVLQMNERNMPRIEIHSEYSALLNNSESEVASYVSEKYQHVQWIMRSLKQRKQTLLQVMTIIMEKQRDFFWKGPEYLKPLALKEVAEELSVHESTISRATRNKYVQTPHGLFEMKSFFSNAVSTTEDEAVSTKRVKQFIQTLVEAENKKKPLSDQKISKLLEEEHEIVISRRTVAKYREQMHIPASSLRKTIGEGHHHHHH | not soluble |
